Sequences and labels used below:
B1: anti-human OX40 IgG2 antibody Mut_10 (S267E/H268S/E269D) (antibody, name in EU numbering)
heavy: QVQLQESGPGLVKPSGTLSLTCAVSGGSISSSIWWSWVRQPPGKGLEWIGEIHHSGNTNCNPSLKSRVTISIDKSKNQFSLKLTSVTAADTAVYYCARAGTGTTLDYWGQGTLVTVSSASTKGPSVFPLAPCSRSTSESTAALGCLVKDYFPEPVTVSWNSGALTSGVHTFPAVLQSSGLYSLSSVVTVPSSNFGTQTYTCNVDHKPSNTKVDKTVERKCCVECPPCPAPPVAGPSVFLFPPKPKDTLMISRTPEVTCVVVDVESDDPEVQFNWYVDGVEVHNAKTKPREEQFNSTFRVVSVLTVVHQDWLNGKEYKCKVSNKGLPAPIEKTISKTKGQPREPQVYTLPPSREEMTKNQVSLTCLVKGFYPSDIAVEWESNGQPENNYKTTPPMLDSDGSFFLYSKLTVDKSRWQQGNVFSCSVMHEALHNHYTQKSLSLSPGK
light: EIVLTQSPGTLSLSPGERATLSCRASQSVSGDYLAWYQQKLGQAPRLLIYGASIRATGIPDRFSGSGSGTDFTLTISKLEPEDFAVYYCQQYGSSPLTFGGGTKVEIKRTVAAPSVFIFPPSDEQLKSGTASVVCLLNNFYPREAKVQWKVDNALQSGNSQESVTEQDSKDSTYSLSSTLTLSKADYEKHKVYACEVTHQGLSSPVTKSFNRGEC
notes: Substitutions in Eu numbering; entries include an unstated signal peptide
B2: anti-human OX40 IgG2 antibody Mut_17 (V266L/S267E/H268S/E269V) (antibody, name in EU numbering)
heavy: B1 heavy with V263L, D266V
light: B1 light
notes: as for B1
B3: anti-human OX40 IgG2 antibody Mut_16 (S267E/S298G) (antibody, name in EU numbering)
heavy: B1 heavy with S265H, D266E, S295G
light: B1 light
notes: as for B1
B4: anti-human OX40 IgG2 antibody Mut_11 (S267E/A330S) (antibody, name in EU numbering)
heavy: B1 heavy with S265H, D266E, A327S
light: B1 light
notes: as for B1
B5: anti-human OX40 IgG2 antibody Mut_13 (V266L/S298L/L328W) (antibody, name in EU numbering)
heavy: B1 heavy with V263L, E264S, S265H, D266E, S295L, L325W
light: B1 light
notes: as for B1
B6: anti-human OX40 IgG2 antibody Mut_12 (P233F/V266L/S298L/L328W) (antibody)
heavy: B1 heavy with P231F, V263L, E264S, S265H, D266E, S295L, L325W
light: B1 light
notes: as for B1
B7: anti-human OX40 IgG2 antibody Mut_14 (V234M/S267E/S298G/I332L) (antibody)
heavy: B1 heavy with V232M, S265H, D266E, S295G, I329L
light: B1 light
notes: as for B1
B8: anti-human OX40 IgG2 antibody Mut_15 (V234Q/A235G/P238L/S239V/G327A/L328E/A330S/I332T) (antibody)
heavy: QVQLQESGPGLVKPSGTLSLTCAVSGGSISSSIWWSWVRQPPGKGLEWIGEIHHSGNTNCNPSLKSRVTISIDKSKNQFSLKLTSVTAADTAVYYCARAGTGTTLDYWGQGTLVTVSSASTKGPSVFPLAPCSRSTSESTAALGCLVKDYFPEPVTVSWNSGALTSGVHTFPAVLQSSGLYSLSSVVTVPSSNFGTQTYTCNVDHKPSNTKVDKTVERKCCVECPPCPAPPQGGLVVFLFPPKPKDTLMISRTPEVTCVVVDVSHEDPEVQFNWYVDGVEVHNAKTKPREEQFNSTFRVVSVLTVVHQDWLNGKEYKCKVSNKAEPSPTEKTISKTKGQPREPQVYTLPPSREEMTKNQVSLTCLVKGFYPSDIAVEWESNGQPENNYKTTPPMLDSDGSFFLYSKLTVDKSRWQQGNVFSCSVMHEALHNHYTQKSLSLSPGK
light: B1 light
notes: as for B1

Numbering of substitutions follows the chain as printed. Names and notes keep the numbering of the source.

T6 sequence (P08637 17-208 F176V): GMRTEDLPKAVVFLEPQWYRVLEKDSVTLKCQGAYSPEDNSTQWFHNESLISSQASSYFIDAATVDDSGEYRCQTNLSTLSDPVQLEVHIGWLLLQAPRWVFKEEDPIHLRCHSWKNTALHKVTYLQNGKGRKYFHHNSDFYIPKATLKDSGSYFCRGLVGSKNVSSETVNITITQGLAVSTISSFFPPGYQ
T1 sequence (P12314 16-292): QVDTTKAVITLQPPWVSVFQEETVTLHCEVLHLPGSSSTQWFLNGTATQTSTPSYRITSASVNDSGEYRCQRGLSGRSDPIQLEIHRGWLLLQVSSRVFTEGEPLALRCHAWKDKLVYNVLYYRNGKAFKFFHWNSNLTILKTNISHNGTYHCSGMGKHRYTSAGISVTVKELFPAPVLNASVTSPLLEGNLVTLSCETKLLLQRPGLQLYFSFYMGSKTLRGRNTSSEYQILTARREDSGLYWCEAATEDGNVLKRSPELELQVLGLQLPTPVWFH

One assay has as its target T1, FcγRI (human, UniProt P12314 16-292, biotin-labeled).
T1 construct: extracellular domain; Bought protein; also called CD64
Kind of assay: ELISA, coated antibody, biotin-FcγR.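 As to Absorbance value: antibody coated at 2 µg/mL at 100 µL per well.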 For orientation: In an ELISA, binding on a coated surface is turned into a signal by an enzyme label.
As for B1, the Absorbance value stood at 0.18 A650 and the “Relative binding affinity RI/G1” value worked out at 0.07 ratio.
The like results for B2 were, in that order, 0.14 A650 and 0.05 ratio.
The matching figures for B3: 0.1 A650 and 0.04 ratio.
The like results for B4 were, in that order, 0.13 A650 and 0.05 ratio.
For the molecule B5, the Absorbance value worked out at 0.18 A650 and the “Relative binding affinity RI/G1” value came to 0.07 ratio.
On to B6, for which the Absorbance value was determined as 0.21 A650 and the “Relative binding affinity RI/G1” value was 0.08 ratio.
In the case of B7, the Absorbance value was 0.12 A650 and the “Relative binding affinity RI/G1” value turned out to be 0.04 ratio.
The like results for B8 were, in that order, 0.08 A650 and 0.03 ratio.

The target in a further assay is T2, FcγRIIA^131H (human, UniProt P12318 34-217, biotin-labeled).
T2 construct: extracellular domain; Bought protein; also called RIIAH
T2 sequence (looked up): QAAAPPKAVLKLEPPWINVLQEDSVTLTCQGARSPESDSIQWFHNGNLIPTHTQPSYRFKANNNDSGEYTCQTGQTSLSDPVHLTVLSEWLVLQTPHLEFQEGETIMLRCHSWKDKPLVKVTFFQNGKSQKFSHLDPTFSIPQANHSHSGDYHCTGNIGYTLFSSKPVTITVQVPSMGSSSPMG
Kind of assay: ELISA, coated antibody, biotin-FcγR.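 As to Absorbance value: antibody coated at 2 µg/mL at 100 µL per well.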
On to B1, for which the Absorbance value was 0.58 A650 and the “Relative binding affinity RIIAH/G1” value stood at 1.02 ratio.
On to B2, for which the Absorbance value is 0.54 A650 and the “Relative binding affinity RIIAH/G1” value worked out at 0.95 ratio.
The matching figures for B3: 0.39 A650 and 0.68 ratio.
The matching figures for B4: 0.55 A650 and 0.96 ratio.
The like results for B5 were, in that order, 0.33 A650 and 0.58 ratio.
Turning to B6, the Absorbance value was 0.39 A650 and the “Relative binding affinity RIIAH/G1” value was 0.68 ratio.
The like results for B7 were, in that order, 0.12 A650 and 0.21 ratio.
The like results for B8 were, in that order, 0.04 A650 and 0.07 ratio.

Another assay addresses T3, FcγRIIA^131R (human, UniProt P12318 34-217, biotin-labeled).
T3 construct: extracellular domain; Bought protein; also called RIIAR
T3 sequence (looked up): T2 sequence (looked up) with H134R
Kind of assay: ELISA, coated antibody, biotin-FcγR.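 As to Absorbance value: antibody coated at 2 µg/mL at 100 µL per well.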
As for B1, the Absorbance value worked out at 0.43 A650 and the “Relative binding affinity RIIAR/G1” value came to 1.64 ratio.
The matching figures for B2: 0.5 A650 and 1.9 ratio.
With B3, the Absorbance value was determined as 0.5 A650 and the “Relative binding affinity RIIAR/G1” value was found to be 1.92 ratio.
The like results for B4 were, in that order, 0.36 A650 and 1.36 ratio.
The like results for B5 were, in that order, 0.26 A650 and 1.01 ratio.
The like results for B6 were, in that order, 0.33 A650 and 1.26 ratio.
As to B7, the Absorbance value stood at 0.32 A650 and the “Relative binding affinity RIIAR/G1” value was 1.22 ratio.
The matching figures for B8: 0.04 A650 and 0.17 ratio.

The target of the next assay is T4, FcγRIIB (human, UniProt P31994 43-217, biotin-labeled).
T4 construct: extracellular domain; Bought protein; also called CD32b
T4 sequence (looked up): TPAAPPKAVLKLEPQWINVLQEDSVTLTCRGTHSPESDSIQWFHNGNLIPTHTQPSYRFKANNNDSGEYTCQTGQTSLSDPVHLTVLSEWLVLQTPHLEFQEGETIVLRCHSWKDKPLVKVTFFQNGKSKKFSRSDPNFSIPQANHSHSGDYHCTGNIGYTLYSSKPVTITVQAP
Put plainly: ELISA, coated antibody, biotin-FcγR.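 As to Absorbance value: antibody coated at 2 µg/mL at 100 µL per well.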
As for B1, the Absorbance value worked out at 1.05 A650, the “Increased factor of RIIB binding compared with wild-type IgG2” value (from here on “Increased factor of RIIB binding”) is 14.1 fold and the “Relative binding affinity RIIB/G1” value came out at 1.4 ratio.
The like results for B2 were, in that order, 1.19 A650, 15.9 fold and 1.58 ratio.
The like results for B3 were, in that order, 1.09 A650, 14.5 fold and 1.44 ratio.
The matching figures for B4: 1.01 A650, 13.4 fold and 1.33 ratio.
As to B5, the Absorbance value was 0.73 A650, the “Increased factor of RIIB binding” value was found to be 9.75 fold and the “Relative binding affinity RIIB/G1” value amounted to 0.97 ratio.
The like results for B6 were, in that order, 0.94 A650, 12.6 fold and 1.25 ratio.
The matching figures for B7: 0.7 A650, 9.36 fold and 0.93 ratio.
On to B8, for which the Absorbance value is 0.47 A650, the “Increased factor of RIIB binding” value is 6.21 fold and the “Relative binding affinity RIIB/G1” value amounted to 0.62 ratio.

For a further assay, the target named is T5, FcγRIIIA^158F (human, UniProt P08637 17-208, biotin-labeled).
T5 construct: extracellular domain; Bought protein; also called RIIIAF
T5 sequence (P08637 17-208): as the sequence (P08637 17-208 F176V) above, with V160F counted along it
Put plainly: ELISA, coated antibody, biotin-FcγR.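 As to Absorbance value: antibody coated at 2 µg/mL at 100 µL per well.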
On to B1, for which the Absorbance value is 0.09 A650 and the “Relative binding affinity RIIIAF/G1” value was 0.48 ratio.
The like results for B2 were, in that order, 0.09 A650 and 0.49 ratio.
The like results for B3 were, in that order, 0.06 A650 and 0.32 ratio.
The matching figures for B4: 0.08 A650 and 0.41 ratio.
Turning to B5, the Absorbance value amounted to 0.07 A650 and the “Relative binding affinity RIIIAF/G1” value was determined as 0.37 ratio.
The matching figures for B6: 0.06 A650 and 0.32 ratio.
The like results for B7 were, in that order, 0.06 A650 and 0.31 ratio.
The matching figures for B8: 0.06 A650 and 0.31 ratio.

Another assay concerns the target T6, FcγRIIIA^158V (human, UniProt P08637 17-208, biotin-labeled).
T6 construct: extracellular domain; Bought protein; also called RIIIAV; CD16a 158V
Put plainly: ELISA, coated antibody, biotin-FcγR.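 As to Absorbance value: antibody coated at 2 µg/mL at 100 µL per well.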
For B1, the Absorbance value turned out to be 0.09 A650 and the “Relative binding affinity RIIIAV/G1” value was determined as 0.09 ratio.
On to B2, for which the Absorbance value is 0.06 A650 and the “Relative binding affinity RIIIAV/G1” value amounted to 0.06 ratio.
The like results for B3 were, in that order, 0.06 A650 and 0.06 ratio.
The matching figures for B4: 0.08 A650 and 0.08 ratio.
The like results for B5 were, in that order, 0.08 A650 and 0.09 ratio.
Turning to B6, the Absorbance value was determined as 0.06 A650 and the “Relative binding affinity RIIIAV/G1” value is 0.06 ratio.
The matching figures for B7: 0.05 A650 and 0.06 ratio.
The like results for B8 were, in that order, 0.05 A650 and 0.06 ratio.

A further assay has as its target T4, FcγRIIB. Put plainly: ELISA; relative affinity to FcγRIIB over that to FcγRIIA131R. The method, then: One hundred μl (2 μg/mL) of antibody or mutant thereof were added to the enzyme-linked plate to be coated overnight, then the supernatant was discarded. The plate was blocked with PBS containing 1% BSA for 2 hours, and washed with PBST (PBS containing 0.05% Tween 20). Biotin-labeled FcγR extracellular domain protein (Beijing Sino Biological Co., Ltd) of appropriate concentration was added and incubated at room temperature for 1 hour, then the supernatant was discarded and the plate was washed with PBST. The Biotin-labeled protein was detected by incubating with Streptavidin-HRP (BD BioSciences) at room temperature for 1 hour. The supernatant was removed, and the color-developing solution was added for color development for 20-40 minutes to determine the absorbance of 650 nm (A650).
Anti-human OX40 antibodies containing these new Fc mutation combinations are expressed and the binding property of the mutant antibody to FcγR are analyzed by Enzyme-linked immunosorbent assay (ELISA).
B1: the RIIB/RIIAR was 0.85 ratio.
The same measure, in the same setting: the figure for B2 is 0.83 ratio.
The same measure, in the same setting: under B3 stands 0.75 ratio.
On the same count and under the same terms, the figure for B4 is 0.98 ratio; for B5 it is 0.96 ratio.
On to B6, for which the RIIB/RIIAR is 0.99 ratio.
For the molecule B7, the RIIB/RIIAR came to 0.76 ratio.
Take B8: the RIIB/RIIAR worked out at 3.67 ratio.

The values are drawn from patent US20230220042A1 (SHANGHAI JIAO TONG UNIVERSITY SCHOOL OF MEDICINE, published 2023).
